The source of these data is patent US10253076B2, “Peptides and combination of peptides for use in immunotherapy against ovarian cancer and other cancers” (immatics biotechnologies GmbH, priority 2015, dated 2019).

The test concerns the target HLA-A*02:01 (Homo sapiens, UniProt P04439, D140Y/D185E/D98H/E176V/E277Q/G131W/G231S/I119V/I121R/I166T/I218V/L300P/L318F/N151K/N90K/P208A/P217A/Q86G/Q94H/R138H/R169H/T345S). The test is described as follows: MHC binding assay (UV-ligand exchange, beta2m ELISA, peptide exchange yield). The settings on record: binding of HLA-class I restricted peptides to HLA-A*02:01, ranged by peptide exchange yield (UV-ligand exchange, β2m ELISA). From the text: Candidate peptides for T cell based therapies according to the present invention were further tested for their MHC binding capacity (affinity). The individual peptide-MHC complexes were produced by UV-ligand exchange, where a UV-sensitive peptide is cleaved upon UV-irradiation, and exchanged with the peptide of interest as analyzed. Only peptide candidates that can effectively bind and stabilize the peptide-receptive MHC molecules prevent dissociation of the MHC complexes. To determine the yield of the exchange reaction, an ELISA was performed based on the detection of the light chain (β2m) of stabilized MHC complexes. The assay was performed as generally described in Rodenko et al. (Rodenko et al., 2006).
96 well MAXISorp plates (NUNC) were coated over night with 2ug/ml streptavidin in PBS at room temperature, washed 4× and blocked for 1 h at 37° C. in 2% BSA containing blocking buffer. […] Peptide-MHC monomers of the UV-exchange reaction were diluted 100 fold in blocking buffer. Samples were incubated for 1 h at 37° C., washed four times, incubated with 2ug/ml HRP conjugated anti-82m for 1 h at 37° C., washed again and detected with TMB solution that is stopped with […]. Absorption was measured at 450 nm. Candidate peptides that show a high exchange yield (preferably higher than 50%, most preferred higher than 75%) are generally preferred for a generation and production of antibodies or fragments thereof, and/or T cell receptors or fragments thereof, as they show sufficient avidity to the MHC molecules and prevent dissociation of the MHC complexes.

Take “621 (VLMDRLPSLL; listed as Homo sapiens) [compound 621]”: the Peptide exchange result is recorded as “″++++″ (≥75% = ++++)”.
For the substance “134 (YLQELIFSV; listed as Homo sapiens) [compound 134]”, the Peptide exchange result is “″+++″ (≥50% = +++)”.
Consider “587 (VMNDRLYAI; listed as Homo sapiens) [compound 587]”, for which the Peptide exchange entry is “″+++″ (≥50% = +++)”.
The result for “167 (KVLEVTEEFGV; listed as Homo sapiens) [compound 167]” reads “″+++″ (≥50% = +++)”.
On to “397 (YLFGERLLEC; listed as Homo sapiens) [compound 397]”, for which the Peptide exchange entry was “″+++″ (≥50% = +++)”.
Take “549 (AMLENASDIKL; listed as Homo sapiens) [compound 549]”: the Peptide exchange result is reported as “″+++″ (≥50% = +++)”.
The result for “326 (FLPEALDFV; listed as Homo sapiens) [compound 326]” reads “″+++″ (≥50% = +++)”; that for “100 (YLLSTNAQL; listed as Homo sapiens) [compound 100]”, “″++++″ (≥75% = ++++)”.
With “457 (SLLPGNLVEKV; listed as Homo sapiens) [compound 457]”, the Peptide exchange result is recorded as “″+++″ (≥50% = +++)”.
On to “312 (IISDLTIAL; listed as Homo sapiens) [compound 312]”, for which the Peptide exchange result is “″+++″ (≥50% = +++)”.
Next, “429 (GLVNDLARV; listed as Homo sapiens) [compound 429]”: “″++″ (≥20% = ++)”.
Next, “522 (TLWYRSPEV; listed as Homo sapiens) [compound 522]”: “″++″ (≥20% = ++)”; “521 (MLLTKLPTI; listed as Homo sapiens) [compound 521]”: “″+++″ (≥50% = +++)”.
Consider “407 (YLMDLINFL; listed as Homo sapiens) [compound 407]”, for which the Peptide exchange entry is reported as “″+++″ (≥50% = +++)”.
With “24 (SLSDGLEEV; listed as Homo sapiens) [compound 24]”, the Peptide exchange entry is “″++″ (≥20% = ++)”.
The result for “25 (FLPDEPYIKV; listed as Homo sapiens) [compound 25]” reads “″+++″ (≥50% = +++)”.
For “525 (VLLEAGEGLVTI; listed as Homo sapiens) [compound 525]”, the Peptide exchange result is given as “″+++″ (≥50% = +++)”.
The result for “120 (ALLGIPLTLV; listed as Homo sapiens) [compound 120]” reads “″+++″ (≥50% = +++)”; that for “550 (FLYDEIEAEVNL; listed as Homo sapiens) [compound 550]”, “″+++″ (≥50% = +++)”.
The result for “377 (FLLDSSASV; listed as Homo sapiens) [compound 377]” reads “″++″ (≥20% = ++)”.
With “238 (YLISFQTHI; listed as Homo sapiens) [compound 238]”, the Peptide exchange entry is “″+++″ (≥50% = +++)”.
On to “378 (ALGYFVPYV; listed as Homo sapiens) [compound 378]”, for which the Peptide exchange entry was “″+++″ (≥50% = +++)”.
Consider “236 (GLLEAKVSL; listed as Homo sapiens) [compound 236]”, for which the Peptide exchange entry is “″+++″ (≥50% = +++)”.
Next, “204 (KIAENVEEV; listed as Homo sapiens) [compound 204]”: “″++″ (≥20% = ++)”; “509 (FLFDTKPLIV; listed as Homo sapiens) [compound 509]”: “″+++″ (≥50% = +++)”; “296 (FMEGAIIYV; listed as Homo sapiens) [compound 296]”: “″+++″ (≥50% = +++)”.
Take “116 (YHIDEEVGF; listed as Homo sapiens) [compound 116]”: the Peptide exchange result is given as “″+″ (≥10% = +)”.
Regarding “396 (ALLPDLPAL; listed as Homo sapiens) [compound 396]”, the Peptide exchange result was “″+++″ (≥50% = +++)”.
As for “164 (ALLPQPKNLTV; listed as Homo sapiens) [compound 164]”, the Peptide exchange result is reported as “″+++″ (≥50% = +++)”.
Take “430 (HLYSSIEHLTT; listed as Homo sapiens) [compound 430]”: the Peptide exchange result is on record as “″+++″ (≥50% = +++)”.
Next, “623 (YLVEDIQHI; listed as Homo sapiens) [compound 623]”: “″+++″ (≥50% = +++)”; “391 (YVYPQRLNFV; listed as Homo sapiens) [compound 391]”: “″+++″ (≥50% = +++)”.
For “365 (YVIDQGETDVYV; listed as Homo sapiens) [compound 365]”, the Peptide exchange result is given as “″+++″ (≥50% = +++)”.
The result for “140 (YMDAPKAAL; listed as Homo sapiens) [compound 140]” reads “″++″ (≥20% = ++)”; that for “531 (YTLPIASSIRL; listed as Homo sapiens) [compound 531]”, “″+++″ (≥50% = +++)”.
As for “313 (VLFDDELLMV; listed as Homo sapiens) [compound 313]”, the Peptide exchange result is given as “″+++″ (≥50% = +++)”.
On to “297 (VLADIELAQA; listed as Homo sapiens) [compound 297]”, for which the Peptide exchange entry is “″+++″ (≥50% = +++)”.
Consider “405 (ALYDVFLEV; listed as Homo sapiens) [compound 405]”, for which the Peptide exchange entry is on record as “″++″ (≥20% = ++)”.
Next, “474 (YLDPALELGPRNV; listed as Homo sapiens) [compound 474]”: “″+++″ (≥50% = +++)”.
The result for “610 (LLAPTPYIIGV; listed as Homo sapiens) [compound 610]” reads “″+++″ (≥50% = +++)”.
With “45 (SLWQDIPDV; listed as Homo sapiens) [compound 45]”, the Peptide exchange entry is listed as “″+++″ (≥50% = +++)”.
With “303 (AILPQLFMV; listed as Homo sapiens) [compound 303]”, the Peptide exchange entry was “″++++″ (≥75% = ++++)”.
Regarding “9 (GAAKDLPGV; listed as Homo sapiens) [compound 9]”, the Peptide exchange result is “″++″ (≥20% = ++)”.
Next, “169 (NLPEYLPFV; listed as Homo sapiens) [compound 169]”: “″+++″ (≥50% = +++)”; “565 (ALQETPTSV; listed as Homo sapiens) [compound 565]”: “″++″ (≥20% = ++)”.
With “264 (SLQEQLHSV; listed as Homo sapiens) [compound 264]”, the Peptide exchange result is reported as “″+++″ (≥50% = +++)”.
Next, “399 (YLFEPLYHV; listed as Homo sapiens) [compound 399]”: “″+++″ (≥50% = +++)”; “497 (GLLEKLTAI; listed as Homo sapiens) [compound 497]”: “″+++″ (≥50% = +++)”; “502 (RLLAQVPGL; listed as Homo sapiens) [compound 502]”: “″+++″ (≥50% = +++)”.
Next, “239 (AAFAGKLLSV; listed as Homo sapiens) [compound 239]”: “″+++″ (≥50% = +++)”; “69 (FQLDPSSGVLVTV; listed as Homo sapiens) [compound 69]”: “″+++″ (≥50% = +++)”; “286 (YLFPGIPEL; listed as Homo sapiens) [compound 286]”: “″+++″ (≥50% = +++)”.
Next, “267 (ALQDFLLSV; listed as Homo sapiens) [compound 267]”: “″+++″ (≥50% = +++)”; “600 (ALAAPDIVPAL; listed as Homo sapiens) [compound 600]”: “″+++″ (≥50% = +++)”; “493 (GLLGEKTQDLIGV; listed as Homo sapiens) [compound 493]”: “″+++″ (≥50% = +++)”.
For “75 (GLLEVMVNL; listed as Homo sapiens) [compound 75]”, the Peptide exchange result is “″+++″ (≥50% = +++)”.
With “74 (ALLDPEVLSIFV; listed as Homo sapiens) [compound 74]”, the Peptide exchange result was “″+++″ (≥50% = +++)”.
Next, “311 (RLYTGMHTV; listed as Homo sapiens) [compound 311]”: “″+++″ (≥50% = +++)”; “329 (FLVTLNNVEV; listed as Homo sapiens) [compound 329]”: “″++++″ (≥75% = ++++)”.
With “328 (ALNDQVFEI; listed as Homo sapiens) [compound 328]”, the Peptide exchange entry is recorded as “″+++″ (≥50% = +++)”.
The result for “450 (FMIDASVHPTL; listed as Homo sapiens) [compound 450]” reads “″+++″ (≥50% = +++)”; that for “448 (NLLETKLQL; listed as Homo sapiens) [compound 448]”, “″+++″ (≥50% = +++)”.
Take “352 (SLLELLHIYV; listed as Homo sapiens) [compound 352]”: the Peptide exchange entry is recorded as “″+++″ (≥50% = +++)”.
For the substance “226 (MLYVVPIYL; listed as Homo sapiens) [compound 226]”, the Peptide exchange result is listed as “″++″ (≥20% = ++)”.
